Laboratory results: IntAct's records for PubMed 25910212

B1: Complement factor H-related protein 5 (Homo sapiens), Q9BXR6 (parent)
chain: MLLLFSVILISWVSTVGGEGTLCDFPKIHHGFLYDEEDYNPFSQVPTGEVFYYSCEYNFVSPSKSFWTRITCTEEGWSPTPKCLRMCSFPFVKNGHSESSGLIHLEGDTVQIICNTGYSLQNNEKNISCVERGWSTPPICSFTKGECHVPILEANVDAQPKKESYKVGDVLKFSCRKNLIRVGSDSVQCYQFGWSPNFPTCKGQVRSCGPPPQLSNGEVKEIRKEEYGHNEVVEYDCNPNFIINGPKKIQCVDGEWTTLPTCVEQVKTCGYIPELEYGYVQPSVPPYQHGVSVEVNCRNEYAMIGNNMITCINGIWTELPMCVATHQLKRCKIAGVNIKTLLKLSGKEFNHNSRIRYRCSDIFRYRHSVCINGKWNPEVDCTEKREQFCPPPPQIPNAQNMTTTVNYQDGEKVAVLCKENYLLPEAKEIVCKDGRWQSLPRCVESTAYCGPPPSINNGDTTSFPLSVYPPGSTVTYRCQSFYKLQGSVTVTCRNKQWSEPPRCLDPCVVSEENMNKNNIQLKWRNDGKLYAKTGDAVEFQCKFPHKAMISSPPFRAICQEGKFEYPICE
partner: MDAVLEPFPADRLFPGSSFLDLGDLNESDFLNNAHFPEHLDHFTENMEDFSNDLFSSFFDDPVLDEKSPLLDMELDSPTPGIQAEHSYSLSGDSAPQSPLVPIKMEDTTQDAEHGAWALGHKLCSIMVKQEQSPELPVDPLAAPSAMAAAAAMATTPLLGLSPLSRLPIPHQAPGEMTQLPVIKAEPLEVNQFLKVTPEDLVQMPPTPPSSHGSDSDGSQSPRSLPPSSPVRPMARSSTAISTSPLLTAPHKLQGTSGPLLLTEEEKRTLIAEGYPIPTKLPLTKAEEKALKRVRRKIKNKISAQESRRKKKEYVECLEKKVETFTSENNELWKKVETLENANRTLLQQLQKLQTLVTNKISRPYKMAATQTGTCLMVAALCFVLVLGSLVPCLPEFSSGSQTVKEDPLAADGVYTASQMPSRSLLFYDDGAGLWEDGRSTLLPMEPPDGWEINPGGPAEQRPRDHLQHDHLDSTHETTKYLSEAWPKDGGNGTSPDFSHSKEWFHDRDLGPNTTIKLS
B2: U4/U6 small nuclear ribonucleoprotein Prp3 (Homo sapiens), O43395 (parent)
chain: MALSKRELDELKPWIEKTVKRVLGFSEPTVVTAALNCVGKGMDKKKAADHLKPFLDDSTLRFVDKLFEAVEEGRSSRHSKSSSDRSRKRELKEVFGDDSEISKESSGVKKRRIPRFEEVEEEPEVIPGPPSESPGMLTKLQIKQMMEAATRQIEERKKQLSFISPPTPQPKTPSSSQPERLPIGNTIQPSQAATFMNDAIEKARKAAELQARIQAQLALKPGLIGNANMVGLANLHAMGIAPPKVELKDQTKPTPLILDEQGRTVDATGKEIELTHRMPTLKANIRAVKREQFKQQLKEKPSEDMESNTFFDPRVSIAPSQRQRRTFKFHDKGKFEKIAQRLRTKAQLEKLQAEISQAARKTGIHTSTRLALIAPKKELKEGDIPEIEWWDSYIIPNGFDLTEENPKREDYFGITNLVEHPAQLNPPVDNDTPVTLGVYLTKKEQKKLRRQTRREAQKELQEKVRLGLMPPPEPKVRISNLMRVLGTEAVQDPTKVEAHVRAQMAKRQKAHEEANAARKLTAEQRKVKKIKKLKEDISQGVHISVYRVRNLSNPAKKFKIEANAGQLYLTGVVVLHKDVNVVVVEGGPKAQKKFKRLMLHRIKWDEQTSNTKGDDDEESDEEAVKKTNKCVLVWEGTAKDRSFGEMKFKQCPTENMAREHFKKHGAEHYWDLALSESVLESTD
partner: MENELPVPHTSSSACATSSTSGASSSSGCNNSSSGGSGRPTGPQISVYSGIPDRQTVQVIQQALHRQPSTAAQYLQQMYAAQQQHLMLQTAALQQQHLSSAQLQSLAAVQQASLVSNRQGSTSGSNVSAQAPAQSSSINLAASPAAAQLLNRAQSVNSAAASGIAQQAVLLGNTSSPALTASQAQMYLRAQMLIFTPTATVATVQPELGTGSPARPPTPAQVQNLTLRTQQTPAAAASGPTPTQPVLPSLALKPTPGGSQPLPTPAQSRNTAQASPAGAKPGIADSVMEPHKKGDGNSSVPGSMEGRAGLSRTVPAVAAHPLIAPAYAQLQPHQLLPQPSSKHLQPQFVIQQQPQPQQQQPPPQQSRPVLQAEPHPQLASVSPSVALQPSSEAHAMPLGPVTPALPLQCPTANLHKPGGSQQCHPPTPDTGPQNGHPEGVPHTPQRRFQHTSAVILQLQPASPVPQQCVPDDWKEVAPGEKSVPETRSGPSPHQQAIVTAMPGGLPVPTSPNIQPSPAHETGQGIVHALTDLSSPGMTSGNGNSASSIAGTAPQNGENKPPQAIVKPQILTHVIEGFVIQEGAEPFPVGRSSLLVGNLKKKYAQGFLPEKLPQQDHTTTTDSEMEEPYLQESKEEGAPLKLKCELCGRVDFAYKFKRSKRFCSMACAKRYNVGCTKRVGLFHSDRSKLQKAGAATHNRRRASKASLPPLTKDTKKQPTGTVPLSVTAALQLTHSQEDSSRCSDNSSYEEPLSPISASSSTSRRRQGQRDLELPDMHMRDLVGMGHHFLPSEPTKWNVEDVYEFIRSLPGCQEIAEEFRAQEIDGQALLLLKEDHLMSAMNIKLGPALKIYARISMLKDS
B3: U4/U6 small nuclear ribonucleoprotein Prp31 (Homo sapiens), Q8WWY3 (parent)
chain: MSLADELLADLEEAAEEEEGGSYGEEEEEPAIEDVQEETQLDLSGDSVKTIAKLWDSKMFAEIMMKIEEYISKQAKASEVMGPVEAAPEYRVIVDANNLTVEIENELNIIHKFIRDKYSKRFPELESLVPNALDYIRTVKELGNSLDKCKNNENLQQILTNATIMVVSVTASTTQGQQLSEEELERLEEACDMALELNASKHRIYEYVESRMSFIAPNLSIIIGASTAAKIMGVAGGLTNLSKMPACNIMLLGAQRKTLSGFSSTSVLPHTGYIYHSDIVQSLPPDLRRKAARLVAAKCTLAARVDSFHESTEGKVGYELKDEIERKFDKWQEPPPVKQVKPLPAPLDGQRKKRGGRRYRKMKERLGLTEIRKQANRMSFGEIEEDAYQEDLGFSLGHLGKSGSGRVRQTQVNEATKARISKTLQRTLQKQSVVYGGKSTIRDRSSGTASSVAFTPLQGLEIVNPQAAEKKVAEANQKYFSSMAEFLKVKGEKSGLMST
partner: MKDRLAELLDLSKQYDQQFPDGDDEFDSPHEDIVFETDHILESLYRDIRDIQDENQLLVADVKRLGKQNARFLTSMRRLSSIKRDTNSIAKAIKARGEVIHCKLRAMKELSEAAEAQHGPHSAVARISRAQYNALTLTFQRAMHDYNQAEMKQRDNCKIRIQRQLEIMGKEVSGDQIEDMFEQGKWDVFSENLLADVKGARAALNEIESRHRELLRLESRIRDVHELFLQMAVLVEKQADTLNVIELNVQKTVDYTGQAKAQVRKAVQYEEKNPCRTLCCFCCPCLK
B4: Cytochrome P450 1A1 (Homo sapiens), P04798 (parent)
chain: MLFPISMSATEFLLASVIFCLVFWVIRASRPQVPKGLKNPPGPWGWPLIGHMLTLGKNPHLALSRMSQQYGDVLQIRIGSTPVVVLSGLDTIRQALVRQGDDFKGRPDLYTFTLISNGQSMSFSPDSGPVWAARRRLAQNGLKSFSIASDPASSTSCYLEEHVSKEAEVLISTLQELMAGPGHFNPYRYVVVSVTNVICAICFGRRYDHNHQELLSLVNLNNNFGEVVGSGNPADFIPILRYLPNPSLNAFKDLNEKFYSFMQKMVKEHYKTFEKGHIRDITDSLIEHCQEKQLDENANVQLSDEKIINIVLDLFGAGFDTVTTAISWSLMYLVMNPRVQRKIQEELDTVIGRSRRPRLSDRSHLPYMEAFILETFRHSSFVPFTIPHSTTRDTSLKGFYIPKGRCVFVNQWQINHDQKLWVNPSEFLPERFLTPDGAIDKVLSEKVIIFGMGKRKCIGETIARWEVFLFLAILLQRVEFSVPLGVKVDMTPIYGLTMKHACCEHFQMQLRS
B5: Polyunsaturated fatty acid 5-lipoxygenase (Homo sapiens), P09917 (parent)
chain: MPSYTVTVATGSQWFAGTDDYIYLSLVGSAGCSEKHLLDKPFYNDFERGAVDSYDVTVDEELGEIQLVRIEKRKYWLNDDWYLKYITLKTPHGDYIEFPCYRWITGDVEVVLRDGRAKLARDDQIHILKQHRRKELETRQKQYRWMEWNPGFPLSIDAKCHKDLPRDIQFDSEKGVDFVLNYSKAMENLFINRFMHMFQSSWNDFADFEKIFVKISNTISERVMNHWQEDLMFGYQFLNGCNPVLIRRCTELPEKLPVTTEMVECSLERQLSLEQEVQQGNIFIVDFELLDGIDANKTDPCTLQFLAAPICLLYKNLANKIVPIAIQLNQIPGDENPIFLPSDAKYDWLLAKIWVRSSDFHVHQTITHLLRTHLVSEVFGIAMYRQLPAVHPIFKLLVAHVRFTIAINTKAREQLICECGLFDKANATGGGGHVQMVQRAMKDLTYASLCFPEAIKARGMESKEDIPYYFYRDDGLLVWEAIRTFTAEVVDIYYEGDQVVEEDPELQDFVNDVYVYGMRGRKSSGFPKSVKSREQLSEYLTVVIFTASAQHAAVNFGQYDWCSWIPNAPPTMRAPPPTAKGVVTIEQIVDTLPDRGRSCWHLGAVWALSQFQENELFLGMYPEEHFIEKPVKEAMARFRKNLEAIVSVIAERNKKKQLPYYYLSPDRIPNSVAI
partner: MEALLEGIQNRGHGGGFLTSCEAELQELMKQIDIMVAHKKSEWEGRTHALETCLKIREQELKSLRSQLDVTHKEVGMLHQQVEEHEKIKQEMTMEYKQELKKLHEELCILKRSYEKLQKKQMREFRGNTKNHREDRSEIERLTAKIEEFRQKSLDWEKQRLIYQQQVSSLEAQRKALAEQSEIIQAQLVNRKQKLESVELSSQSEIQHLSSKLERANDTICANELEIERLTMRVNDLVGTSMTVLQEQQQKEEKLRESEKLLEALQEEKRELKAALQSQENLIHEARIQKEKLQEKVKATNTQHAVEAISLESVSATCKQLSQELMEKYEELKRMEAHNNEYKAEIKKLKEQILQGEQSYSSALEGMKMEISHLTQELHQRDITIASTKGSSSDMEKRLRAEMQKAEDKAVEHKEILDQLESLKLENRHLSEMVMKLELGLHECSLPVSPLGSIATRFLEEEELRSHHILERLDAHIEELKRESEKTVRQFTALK
B6: Vitamin D3 receptor (Homo sapiens), P11473 (parent)
chain: MEAMAASTSLPDPGDFDRNVPRICGVCGDRATGFHFNAMTCEGCKGFFRRSMKRKALFTCPFNGDCRITKDNRRHCQACRLKRCVDIGMMKEFILTDEEVQRKREMILKRKEEEALKDSLRPKLSEEQQRIIAILLDAHHKTYDPTYSDFCQFRPPVRVNDGGGSHPSRPNSRHTPSFSGDSSSSCSDHCITSSDMMDSSSFSNLDLSEEDSDDPSVTLELSQLSMLPHLADLVSYSIQKVIGFAKMIPGFRDLTSEDQIVLLKSSAIEVIMLRSNESFTMDDMSWTCGNQDYKYRVSDVTKAGHSLELIEPLIKFQVGLKKLNLHEEEHVLLMAICIVSPDRPGVQDAALIEAIQDRLSNTLQTYIRCRHPPPGSHLLYAKMIQKLADLRSLNEEHSKQYRCLSFQPECSMKLTPLVLEVFGNEIS

Variants of: B1
Settings: with cr3l1_human CREB3L1, Q96BA8

| Variant | effect of a mutation on the interaction |
| --- | --- |
| K144N | with no effect |
| M514R | with no effect |

Variants of: B2
Settings: with PHC2, Q8IXK0-5

| Variant | effect of a mutation on the interaction |
| --- | --- |
| P493S | disrupting interaction strength |
| A489D | disrupting interaction strength |
| T494M | disrupting interaction strength |

Variants of: B3
Settings: with stx11_human STX11, O75558

| Variant | effect of a mutation on the interaction |
| --- | --- |
| L107V | with no effect |

Variants of: B4
Settings: with CMTM5, Q96DZ9-2
CMTM5, Q96DZ9-2, sequence (Q96DZ9 other isoform, or with tags, fused parts or gaps): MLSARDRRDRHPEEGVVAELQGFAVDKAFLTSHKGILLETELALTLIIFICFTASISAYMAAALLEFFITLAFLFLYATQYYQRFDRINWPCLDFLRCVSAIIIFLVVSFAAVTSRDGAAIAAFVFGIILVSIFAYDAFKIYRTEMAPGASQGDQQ

| Variant | effect of a mutation on the interaction |
| --- | --- |
| T461N | with no effect |
| I462V | with no effect |

Variants of: B5
Settings: with CEP63, Q96MT8-3

| Variant | effect of a mutation on the interaction |
| --- | --- |
| E254K | with no effect |

Variants of: B6
Settings: with meox2_human MEOX2, P50222
meox2_human MEOX2, P50222, sequence (P50222 whole entry): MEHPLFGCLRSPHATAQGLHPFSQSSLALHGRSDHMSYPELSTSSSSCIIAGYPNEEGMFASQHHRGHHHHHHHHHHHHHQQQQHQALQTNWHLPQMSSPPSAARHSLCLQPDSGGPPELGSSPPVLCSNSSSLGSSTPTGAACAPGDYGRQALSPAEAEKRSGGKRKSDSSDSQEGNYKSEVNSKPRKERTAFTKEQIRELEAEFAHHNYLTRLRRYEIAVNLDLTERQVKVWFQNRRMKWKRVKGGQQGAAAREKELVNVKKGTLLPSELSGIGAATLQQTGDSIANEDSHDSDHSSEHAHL

| Variant | effect of a mutation on the interaction |
| --- | --- |
| I268T | with no effect |
| C190W | disrupting interaction strength |
